Biological target: human CD47 expressed on cells (red blood cells, K562 cells, THP-1 macrophages) (human) (UniProt Q08722)
Assay: cell-based or functional assay

B1: mouse anti-human CD47 antibody B6H12 (BD Biosciences) (antibody, from another filing, V domains shown)
VH: EVQLVESGGDLVKPGGSLKLSCAASGFTFSGYGMSWVRQTPDKRLEWVATITSGGTYTYYPDSVKGRFTISRDNAKNTLYLQIDSLKSEDTAIYFCARSLAGNAMDYWGQGTSVTVSS
VL: DIVMTQSPATLSVTPGDRVSLSCRASQTISDYLHWYQQKSHESPRLLIKFASQSISGIPSRFSGSGSGSDFTLSINSVEPEDVGVYYCQNGHGFPRTFGGGTKLEIK
  % THP-1 macrophages phagocytosing opsonized RBCs: 30%
